Reference: patent US20150079090A1 (JOSAI UNIVERSITY, published 2015)
Ends that are not written are not given here.

Biological target: T1, conjugate of a peptide consisting of an amino acid sequence represented by SEQ ID NO:1 (SSVLYGGPPSAA) and KLH (also: conjugated to KLH with glutaraldehyde, site and number per carrier not given here)
T1 construct: Synthetic peptide (Fmoc solid phase) cross-linked to KLH by glutaraldehyde; also called antigenic substance; antigen
T1 peptide: SSVLYGGPPSAA
Assay: ELISA of hybridoma culture supernatant on plate coated with the peptide-KLH conjugate, fluorescence read-out
Procedure: A buffer solution containing the above-mentioned antigenic substance (5 mg) (Baicarbonate buffer: 100 mM NaHCO₃—NaOH, pH 9.2 to 9.5, the concentration of the peptide: 1 μg/mL) was added to a 96 well flat bottom plate in an amount of 50 μL per well, and allowed to stand for coating at room temperature for 2 hours. The plate was washed 3 times with wash buffer (PBST), and then blocking buffer (3% skim milk 1% BSA, PBS) was added in an amount of 200 to 250 μL/well to react at 4° C. for one full day, and then washed 3 times. Then the culture supernatant of hybridoma was added in an amount of 100 μL/well, which was allowed to react at 37° C. for 4 hours or at 4° C. for one full day. After the plate was washed 3 times, biotin-labeled anti-mouse IgG (SIGMA) diluted 10000 times with dilution buffer (10 mM Tris-HCl (pH 8.0), 0.9% (W/V) NaCl, 0.05% (W/V) Tween 20) was added in an amount of 50 μL/well, which was allowed to react at room temperature for 2 hours. […] Then washing was performed 6 times, and fluorescent substrate buffer (Attophos substrate buffer, Roche Diagnostics K.K.) was added in an amount of 50 μL/well, and the plate was shaded to allow fluorescence to develop. Fluorescence intensity was measured in CytoFluorII (PerSeptive Biosystems).

B1: monoclonal antibody (SSVmAb) of Example 1, produced by hybridoma Mouse-Mouse hybridoma SSV-C 93-3 (NITE BP-972) (antibody, IgG1, V domains shown)
VH: EIQLQQSGAELVKPGASVKISCKASGYSFTGYNMNWVKQSHGKSLEWIGNINPYYGSTSYNQKFKGKATLTVDKSSSTAYMQLNSLTSEDSAVYYCARSPYYSNYWRYFDYWGQGTTLTVSS
VL: QIVLSQSPAILSASPGEKVTMTCRASSSVSYMHWYQQKPGSSPKPWIYATSNLASGVPARFSGSGSGTSYSLTISRVEAEDAATYYCQQWSSNPWTFGGGTKLEIK
notes: Mouse hybridoma antibody
B1: binds.
